assay: soluble on expression in E. coli; label from the status in PepcDB or PDB records

Sequence | soluble on expression in E. coli
MIRMSVLASGSTGNATYVESDKGSILVDAGLTGKKMEELFGQIDKQIQNLNGILVTHEHSDHIKGLGVLARKYKLPIYANEKTWTAIEKKDSKIPMDQKFIFNPYETKSLAGFDIESFNVSHDAIDPQFYIFHNNYKKFTILTDTGYVSDRMKGMIQGSDAFVFESNHDVDMLRMCGYPWKTKQRILSDMGHVSNEDAGRAMTDVITGSTKRIYLSHLSQDNLEHHHHHH | not soluble
MIRRRHSTTRIDRRPDGLTIYYKRANDDMEEEMLRVSVKPEGKNINDSLRSSKSSSSPPSRNSSLNLKTLKKDRKSKEGKPKSSSKHGKRMTSRAIHVSKKWSQFNRREDKTDYLDDETMQILEDLKILNCKIRKRFQIGTTCPHSLAKTDILSSSQSSKSQKSSTTTSSPVLTAVAYDYRGIPLTAPTVFPGARSEKTRETTRKAARAFARMEKEREDANNSSSRSRKTYQSRSPTGSEDSSPVIKLTRVSSGTRFPGASSPGTRERSRLMLKQCAMKKQLDEIARSLKSSKKSRKSMKSKKEKKSKPASLKTIYSKM | not soluble
MIRSTVLILASFALAVNCYECMNNTVVINAPSDISKPVFYPDGWDGQSSTPQISENQQCVMTINVPTGYYATVTFYKHFTEPGGYLYFPSRKIELLQNDDYNPYIFPSPMVKINIGTDNRNDVMNQFGFKVVYSKYPTLEKNIINIDLGSPPVAAKPSEKLTTFVGDRNSMMSLMGFTMADNSKNYLLRQTAIFGGDSTDSTYIGSLSQILNSQQILTTYGNKISVYTFGLDKLIDYPLFMGQNQVDTMGLLKYNGANCPSTGNCNVTLNGNWGAHVVVVTSYDGPETIKSFDSFPDTGVLNVYENNVSNTTCIATLNKFNYLQQLPLQVNGNMKFYELRAGGVYNMVVTRDTSRASRHQI | not soluble
MIRVYIALGSNLAMPLQQVSAAREALAHLPRSRLVACSPLYRTKPLGPQDQPDFLNAVVALDTSLPPEQLLDHTQAIERNQGRVRKEQRWGPRTLDLDIMLYGDQVIKTDRLTIPHYGLKAREFMLYPLADIAPDLIFPDGESLSECLKRVDKNGLVLW | soluble
MISHSELRKLFYSADAVCFDVDSTVIREEGIDELAKICGVEDAVSEMTRRAMGGAVPFKAALTERLALIQPSREQVQRLIAEQPPHLTPGIRELVSRLQERNVQVFLISGGFRSIVEHVASKLNIPATNVFANRLKFYFNGEYAGFDETQPTAESGGKGKVIKLLKEKFHFKKIIMIGDGATDMEACPPADAFIGFGGNVIRQQVKDNAKWYITDFVELLGELEE | soluble
MISPGEAVLMDGGTTTLEVARQLAGKQLQVVTNSLPIANLLVNQPQIDLMLIGGFLFPKTGVALGKTAVESLKSVHVRRLIISVGGITEDGLYNSNMLLVETEQQMFEAAEEVIVVTDSTKFGHSALAYLCPLDRVDHIVVDDGITEEWKDVIHKAGIELTVVET | not soluble
MISVFDIFKVGIGPSSSHTVGPMKAAKQFVDELSEHKLLAKTDRLVADVYGSLSLTGRGHSTDIAIVMGLMGYLPDNVDIERIDSVIQQVKQEHKLVLAEANPAETKIIDFDFYNDMPFHSTFLARHENGMTLKAFAGETLLYEKTFYSIGGGFIVDDEHFEQ | not soluble

Reference: the DeepSol protein solubility set
